The target of the assay is HA-tagged PHB2 alanine mutant at Ser39 (S39A) (human) (UniProt Q99623). In words: anti-HA IP of nuclear extracts of transfected SK-BR-3 cells after 1 µM stERAP, immunoblot.

NcoR, O75376 1-2440: the reduction rate of binding against WT came to 82%.

The values above are taken from US20200255474A1.
